Measurements as given in patent US20220089702A1 (PROTHENA BIOSCIENCES, published 2022).
Ends that are not written are not given here.

B1: mouse monoclonal antibody 8A4 (antibody, mouse IgG1, V domains shown)
VH: EVQLQQSGAELVRPGALVKLSCKASGFNIKDYYIHWVKQRPEQGLEWIGWIDPENGDTVYDPQFQDKANITADTSSNTAYLQLSSLTSEGTAVYYCSTLDFWGQGTTLTVSS
VL: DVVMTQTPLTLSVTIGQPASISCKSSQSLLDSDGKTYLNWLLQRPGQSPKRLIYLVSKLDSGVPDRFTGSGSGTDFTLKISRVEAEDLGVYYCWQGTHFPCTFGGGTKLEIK
notes: Mouse IgG1/kappa; also called m8A4; murine 8A4
B2: mouse monoclonal antibody 5G8 (antibody, V domains shown)
VH: EVQLQQSGAELVRSGASVRLSCTASGFNIKDYYMHWVRQRPEQGLEWIGWIDPENGDTVYAPKFQGKATMTSDTSSNTAYLHLSSLTSEDTAVYYCSPLDFWGQGTTLTVSS
VL: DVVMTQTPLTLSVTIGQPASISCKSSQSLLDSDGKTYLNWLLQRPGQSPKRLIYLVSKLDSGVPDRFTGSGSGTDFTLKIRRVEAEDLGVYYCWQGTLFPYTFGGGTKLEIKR
notes: Hybridoma-produced mouse antibody; also called m5G8; murine 5G8
B3: mouse monoclonal antibody 6A10 (antibody, mouse IgG1, V domains shown)
VH: EVQLQQSGAELVRSGASVKLSCTASGLNIKDYYIHWVKQRPEQGLEWIGWIDPENDDTEYAPKFQGRATLTTDTSSNTAYLQLSSLTSEDTAVYYCTPLDYWGQGTSVTVSS
VL: not shown
notes: Mouse IgG1/kappa; also called m6A10; murine 6A10

Target: T1, biotinylated tau peptide spanning amino acids 199-213 of SEQ ID NO:3 (human, also: biotinylated (position not given here))
T1 peptide: KSKIGSTENLKHQPG
Assay: ELISA, biotinylated peptide on streptavidin plate
Text: Overlapping biotinylated peptides spanning the length of the 4R0N isoform of tau (383 amino acids) were bound to wells of a streptavidin-coated ELISA plate. The plate was washed and blocked, and murine forms of antibodies 5G8, 6A10, 8A4, 7G6 and 3D6 were applied. After washing, a horseradish peroxidase-conjugated anti-mouse antibody was applied to the plate, followed by treatment with OPD (o-phenylenediamine dihydrochloride) to allow color development. The plate was read at 450 nm absorbance, with background from wells omitting primary antibody used as a blank subtraction. […] These peptides correspond to amino acids 257-271 and 315-329 in the full-length 4R2N human tau protein.

Does B1 bind?
Result: binds

Does B2 bind?
Result: binds

Does B3 bind?
Result: binds
